Article doi:10.1101/2023.03.28.534543
Each block holds one substance with its values, some of them ahead of it.

How the values were obtained:
Experiment in all cases: SEC
[1] = target: SepF from Archaeoglobus fulgidus (Archaeoglobus fulgidus)
[2] = target: CdpB1 from Archaeoglobus fulgidus (Archaeoglobus fulgidus)
[3] = target: CdpB2 from Archaeoglobus fulgidus (Archaeoglobus fulgidus)

stoichiometry N [1]: 2
Substance: SepF from Archaeoglobus fulgidus (natural protein)

stoichiometry N [2]: 2
Substance: CdpB1 from Archaeoglobus fulgidus (natural protein)

stoichiometry N [3]: 2
Substance: CdpB2 from Archaeoglobus fulgidus (natural protein)
